The numbers were not newly measured in PMC3061256, which cites them from elsewhere.

What is called Kd is the constant that tells how readily two partners part at equilibrium.

In this data set the target is HPr (Escherichia coli) (UniProt P0AA04).

With “EIN (enzyme I N-terminal domain) N-terminal domain (from UniProt P08839)”, the Kd is 10 µM.
